According to publication PMC2730168 (Molecular cell, 2009):
Each block holds one binder with its values, some of them ahead of it.

Assays:
[1] = target: T1, Core RAG1 (384–1008) fused to MBP (MR1) (mouse, UniProt P15919 384-1008); assay: SEC
T1 sequence (looked up): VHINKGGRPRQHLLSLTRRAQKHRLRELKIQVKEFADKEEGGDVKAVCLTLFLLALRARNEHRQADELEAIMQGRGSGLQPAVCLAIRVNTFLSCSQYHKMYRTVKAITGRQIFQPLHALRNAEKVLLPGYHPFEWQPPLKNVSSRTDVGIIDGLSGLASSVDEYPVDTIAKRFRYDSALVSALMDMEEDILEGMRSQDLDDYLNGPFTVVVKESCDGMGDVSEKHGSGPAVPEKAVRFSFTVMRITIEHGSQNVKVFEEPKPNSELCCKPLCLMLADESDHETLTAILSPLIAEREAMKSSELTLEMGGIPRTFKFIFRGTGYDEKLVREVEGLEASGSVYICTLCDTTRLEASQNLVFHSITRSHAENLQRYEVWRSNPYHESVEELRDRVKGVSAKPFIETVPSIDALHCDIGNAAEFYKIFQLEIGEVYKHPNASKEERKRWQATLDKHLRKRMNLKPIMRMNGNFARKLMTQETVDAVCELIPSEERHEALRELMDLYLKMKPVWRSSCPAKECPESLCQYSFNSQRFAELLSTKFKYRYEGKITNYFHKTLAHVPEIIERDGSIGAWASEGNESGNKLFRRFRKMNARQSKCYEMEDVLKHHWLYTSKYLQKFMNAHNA

[2] = target: T2, Core RAG1 (384–1008) fused to MBP (MR1) (mouse), P15919; assay: SEC-MALS; settings: remark: other sources report otherwise
T2 chain: T1 sequence (looked up)

stoichiometry N [1]: ~0.5 per RAG1
B1: HMGB1 (1–163) (domain or fragment, UniProt P09429 1-163, looked up)
chain: MGKGDPKKPRGKMSSYAFFVQTCREEHKKKHPDASVNFSEFSKKCSERWKTMSAKEKGKFEDMAKADKARYEREMKTYIPPKGETKKKFKDPNAPKRPPSAFFLFCSEYRPKIKGEHPGLSIGDVAKKLGEMWNNTAADDKQPYEKKAAKLKEKYEKDIAAYR

stoichiometry N [2]: 2
B2: Core RAG1 (384–1008) fused to MBP (MR1), P15919 384-1008 (domain or fragment)
chain: T1 sequence (looked up)

stoichiometry N [1]: 1 RAG1:RAG2
B3: Core RAG2 fused to MBP with a PreScission protease site (LR2) (domain or fragment, mouse, UniProt P21784 1-387, looked up)
chain: MSLQMVTVGHNIALIQPGFSLMNFDGQVFFFGQKGWPKRSCPTGVFHFDIKQNHLKLKPAIFSKDSCYLPPLRYPATCSYKGSIDSDKHQYIIHGGKTPNNELSDKIYIMSVACKNNKKVTFRCTEKDLVGDVPEPRYGHSIDVVYSRGKSMGVLFGGRSYMPSTQRTTEKWNSVADCLPHVFLIDFEFGCATSYILPELQDGLSFHVSIARNDTVYILGGHSLASNIRPANLYRIRVDLPLGTPAVNCTVLPGGISVSSAILTQTNNDEFVIVGGYQLENQKRMVCSLVSLGDNTIEISEMETPDWTSDIKHSKIWFGSNMGNGTIFLGIPGDNKQAMSEAFYFYTLRCSEEDLSEDQKIVSNSQTSTEDPGDSTPFEDSEEFCFS
